Results as given in US20160264680A1 (INSERM INSTITUT NATIONAL DE LA SANTE ET DE LA RECHERCHE …, published 2016).

Columns and labels:
[1] = molecular target: wild type human KIT on cells (TF-1, Ba/F3-KIT, UT-7/EPO) (human) (UniProt P10721); assay: cell-based or functional assay
[2] = molecular target: T1, recombinant soluble human KIT extracellular domain (KIT-ECD), C-terminal 6His tag (human, UniProt P10721 26-509, biotinylated in the yeast display assays (sites not given)); assay: flow cytometry of yeast displaying the scFv with biotinylated KIT-ECD, streptavidin-PE
T1 construct: range 26-509; Made in High Five insect cells with a baculovirus, purified on Ni-NTA; major protein of 60 kD; Monovalent; also called c-KIT ECD; recombinant KIT

[3] = molecular target: T2, human KIT V560G D816V as expressed on HMC1.2 mastocytoma cells (human, UniProt P10721 26-976); assay: FACS on HMC1.2 cells, soluble scFv from concentrated bacterial supernatant, detected with anti-c-myc and anti-mouse Ig-PE [panel D]
T2 construct: whole, on cells; also called endogenous KIT on HMC1.2
Description: (D) FACS analysis of scFv binding to HMC1.2 cells. ScFvs were induced with IPTG 1 mM overnight at 25° C. from TG1 bacterial containing pHEN phagemid. Supernatant was collected, concentrated on Amicon ultra-4 centrifugal units and incubated with HMC1.2 cells at 4° C. ScFv binding to cells was detected with an anti-c-myc antibody and anti-mouse immunoglobulins conjugated to phycoerythrin. Fluorescence was measured by FACS.
Two hundred thousand HMC1.2 cells were resuspended in 100 μL of PBS-1% FBS at 4° C. (FACS buffer). One hundred μL of culture supernatant was added to the cells during 2 hours at 4° C. Cells were washed with FACS buffer and scFv binding to cells was detected with an anti-c-myc antibody (9E10; Sigma) followed by goat anti-mouse immunoglobulins (Ig) conjugated to PE (Beckton Dickinson).

[4] = molecular target: T1, recombinant soluble human KIT …; assay: soluble scFv ELISA on KIT-ECD

T1 sequence (P10721 other isoform, or with tags, fused parts or gaps limits assumed): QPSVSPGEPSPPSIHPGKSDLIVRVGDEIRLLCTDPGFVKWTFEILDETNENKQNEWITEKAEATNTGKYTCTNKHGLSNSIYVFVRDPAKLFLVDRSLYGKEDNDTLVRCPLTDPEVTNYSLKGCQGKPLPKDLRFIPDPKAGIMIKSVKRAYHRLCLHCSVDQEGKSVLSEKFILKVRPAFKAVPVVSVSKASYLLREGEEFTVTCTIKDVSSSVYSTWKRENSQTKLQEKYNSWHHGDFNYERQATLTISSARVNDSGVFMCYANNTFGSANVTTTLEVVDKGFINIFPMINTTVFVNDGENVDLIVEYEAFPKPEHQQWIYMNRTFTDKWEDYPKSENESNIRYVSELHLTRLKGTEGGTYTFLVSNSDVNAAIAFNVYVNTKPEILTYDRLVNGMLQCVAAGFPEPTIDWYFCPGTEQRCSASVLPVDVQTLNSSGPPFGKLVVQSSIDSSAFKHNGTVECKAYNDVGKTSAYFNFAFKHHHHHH
T2 sequence (P10721 26-976 V560G/D816V): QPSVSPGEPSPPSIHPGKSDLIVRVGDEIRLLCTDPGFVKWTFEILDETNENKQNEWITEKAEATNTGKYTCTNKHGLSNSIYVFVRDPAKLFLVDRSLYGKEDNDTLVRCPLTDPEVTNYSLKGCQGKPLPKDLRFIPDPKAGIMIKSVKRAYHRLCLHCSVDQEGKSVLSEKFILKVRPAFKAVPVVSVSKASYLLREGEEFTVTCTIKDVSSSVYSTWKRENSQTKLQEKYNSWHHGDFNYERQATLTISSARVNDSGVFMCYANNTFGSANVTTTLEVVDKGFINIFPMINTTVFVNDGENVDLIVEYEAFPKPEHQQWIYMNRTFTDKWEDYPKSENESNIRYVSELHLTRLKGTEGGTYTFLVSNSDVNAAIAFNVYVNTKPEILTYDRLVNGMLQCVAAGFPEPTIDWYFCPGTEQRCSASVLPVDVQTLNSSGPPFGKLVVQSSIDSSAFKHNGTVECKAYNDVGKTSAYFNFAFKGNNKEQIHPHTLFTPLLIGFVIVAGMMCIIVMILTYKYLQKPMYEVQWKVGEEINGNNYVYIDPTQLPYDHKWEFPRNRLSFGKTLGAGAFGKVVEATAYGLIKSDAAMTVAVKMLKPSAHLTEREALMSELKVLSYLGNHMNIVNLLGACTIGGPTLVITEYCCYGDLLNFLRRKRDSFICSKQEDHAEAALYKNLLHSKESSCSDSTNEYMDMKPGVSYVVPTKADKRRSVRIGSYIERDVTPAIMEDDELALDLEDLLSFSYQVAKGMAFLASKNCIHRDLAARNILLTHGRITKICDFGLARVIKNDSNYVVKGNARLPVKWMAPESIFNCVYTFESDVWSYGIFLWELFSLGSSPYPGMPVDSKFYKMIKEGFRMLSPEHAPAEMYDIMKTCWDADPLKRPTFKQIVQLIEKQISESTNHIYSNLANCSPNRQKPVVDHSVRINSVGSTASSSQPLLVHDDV
Chain of wild type human KIT on cells (TF-1, Ba/F3-KIT, UT-7/EPO) (human) (P10721 26-976): as the sequence (P10721 26-976 V560G/D816V) above, with G535V, V791D counted along it

mouse SCF in CHO-KL culture supernatant (from UniProt P20826 26-190) (ligand)
KIT surface down-regulation on UT-7/EPO cells after 1 hour (FACS with 104D2) [1]: 70%

B1: affinity matured scFv-2D1C7 displayed on yeast (scFv)
chain: MAQVKLQESGGGLVQPGGSLRLSCAASGFTFDSYAMSWVRQAPGKGLEWVSYITSSSSTIYYVDSVKGRFTISRDNAKNSLYLQMNSLRDEDTAVYYCARLRNSEGYWYFDLWGRGTLVTVSSGGGGSGGGGSGGGGSQSVLTQDPAVSVALGQTVRITCQGDSLRSYYASWYQQKPGQAPLLVMYGENIRPSGIPDRFSGSTSGNSASLTITGAQAEDEADYYCNSRDSSGNHLNWVFGGGTKLTVLG
Kd [2]: 4.2 nM

B2: scFv 2D1, soluble monovalent scFv (scFv)
scFv: MAQVKLQESGGGLVQPGGSLRLSCAASGFTFDSYAMSWVRQAPGKGLEWVSYITSSSSTIYYVDSVKGRFTISRDNAKNSLYLQMNSLRDEDTAVYYCARLRNSEGYWYFDLWGRGTLVTVSSGGGGSGGGGSGGGGSQSALTQDPAVSVALGQTVRITCQGDSLRSYFASWYQQKPGQAPLLVMYGQNIRPSGIPDRFSGSSSGNSASLTITGAQAEDEADYYCNSRDSSYNHWVFGGGTKLTVLG
notes: Expressed from phagemid pHEN in E. coli TG1, used as culture supernatant
binding result [3]: binds | binding result [4]: binds

B3: scFv 3G1, soluble monovalent scFv (scFv)
scFv: MAQVQLVESWGGVAQPGRSLRLSCAASGFTFSSFAMHWVRQAPGKGLEWVAVTSYDGSNEYYADSVKGRFTISRDNSKNTLYLQMNSLRAEDTAVYYCAKAMVRGVTFGDLDYWGQGTLVTVSSGGGGSGGGGSGGGGSSELTQDPAVSVALGQTVRITCQGDSLRSYYASWYQQKPEQAPVLVIYGENSRPSGIPDRFSGSSSGNTASLTITGAQAEDEADYYCNSRDSSGTHLRVFGGGTKLTVLG
notes: as for B2
binding result [3]: binds | binding result [4]: binds

B4: affinity matured scFv-3G1A2 displayed on yeast (scFv)
chain: MAQVQLVESWGGVAQPGRSLRLSCAASGFTFSSFAMHWVRQAPGKGLEWVAVTSYDGSNEYYADSVKGRFTISRDNSKNTLYLQMNSLRAEDTAVYYCAKAMVRGVTFGDLDYWGQGTLVTVSSGGGGSGGGGSGGGGSSELTQDPAVSVALGQTVRKTCQGDSLKSYYASWYQQKPGQAPVLVIYGENSRPSGIPDRFSGSSSGNTASLTITGAQAEDEADYYCCSRATGGYHRIFGGGTKLTVLG
Kd [2]: 1.7 nM
